Test results reported in patent publication US20180185504A1 (Regeneron, published 2018).

T1: macaca fascicularis (mf) PRLR.mmh (soluble monomeric monkey PRLR) (Macaca fascicularis)
T1 construct: called soluble monomeric PRLR protein
T1 chain: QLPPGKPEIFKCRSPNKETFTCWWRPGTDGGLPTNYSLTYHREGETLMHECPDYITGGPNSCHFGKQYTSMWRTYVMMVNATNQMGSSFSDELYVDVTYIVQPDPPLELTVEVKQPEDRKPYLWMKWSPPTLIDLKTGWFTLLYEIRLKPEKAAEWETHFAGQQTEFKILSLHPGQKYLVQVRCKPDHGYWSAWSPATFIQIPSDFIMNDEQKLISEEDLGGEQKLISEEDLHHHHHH

T2: hPRLR.mFc (soluble dimeric human PRLR) (human)
T2 construct: dimeric PRLR construct
T2 chain: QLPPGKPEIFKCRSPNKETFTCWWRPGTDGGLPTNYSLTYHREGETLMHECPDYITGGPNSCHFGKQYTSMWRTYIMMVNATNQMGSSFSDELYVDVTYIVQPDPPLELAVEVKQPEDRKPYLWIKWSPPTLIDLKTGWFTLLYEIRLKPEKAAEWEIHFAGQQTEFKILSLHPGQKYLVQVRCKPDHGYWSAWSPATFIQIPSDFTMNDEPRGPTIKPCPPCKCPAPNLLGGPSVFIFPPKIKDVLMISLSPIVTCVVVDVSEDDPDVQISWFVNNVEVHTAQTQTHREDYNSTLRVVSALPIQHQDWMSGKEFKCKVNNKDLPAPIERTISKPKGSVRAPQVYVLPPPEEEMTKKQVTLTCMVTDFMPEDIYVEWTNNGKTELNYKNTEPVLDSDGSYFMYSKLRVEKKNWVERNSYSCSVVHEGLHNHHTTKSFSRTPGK

T3: hPRLR.mmh (soluble monomeric human PRLR) (human)
T3 construct: called soluble monomeric PRLR protein
T3 chain: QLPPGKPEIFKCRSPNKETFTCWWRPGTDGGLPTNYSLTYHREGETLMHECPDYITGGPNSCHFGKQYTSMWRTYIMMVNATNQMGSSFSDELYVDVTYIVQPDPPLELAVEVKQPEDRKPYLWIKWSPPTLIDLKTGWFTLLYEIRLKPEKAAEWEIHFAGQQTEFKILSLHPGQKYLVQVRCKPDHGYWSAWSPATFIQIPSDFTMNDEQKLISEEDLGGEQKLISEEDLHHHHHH

T4: human prolactin receptor (PRLR) (human, UniProt P16471 25-622)
T4 sequence: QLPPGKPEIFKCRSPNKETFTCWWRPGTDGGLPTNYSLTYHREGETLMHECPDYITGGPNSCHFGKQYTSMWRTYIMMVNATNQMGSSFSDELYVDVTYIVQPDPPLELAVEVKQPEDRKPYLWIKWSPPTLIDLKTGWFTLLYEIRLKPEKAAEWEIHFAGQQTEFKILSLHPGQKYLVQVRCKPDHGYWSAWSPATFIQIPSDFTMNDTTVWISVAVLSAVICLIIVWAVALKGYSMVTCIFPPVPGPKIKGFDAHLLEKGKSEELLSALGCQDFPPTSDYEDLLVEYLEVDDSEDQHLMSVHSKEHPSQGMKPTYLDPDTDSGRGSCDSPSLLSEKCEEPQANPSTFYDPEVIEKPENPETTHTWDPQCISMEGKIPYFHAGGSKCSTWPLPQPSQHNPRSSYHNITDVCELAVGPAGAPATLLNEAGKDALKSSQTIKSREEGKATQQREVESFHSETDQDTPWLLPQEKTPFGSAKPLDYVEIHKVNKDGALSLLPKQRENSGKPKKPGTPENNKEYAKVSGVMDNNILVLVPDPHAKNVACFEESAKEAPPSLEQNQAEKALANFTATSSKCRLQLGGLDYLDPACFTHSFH


What was measured:
[1] = target: T1, macaca fascicularis (mf) PRLR.mmh …; assay: SPR Biacore, 25 C, mAb capture
Description: (§1) Measurements were conducted on a T200 Biacore instrument. Kinetic association (kₐ) and dissociation (kd) rate constants were determined by processing and fitting the data to a 1:1 binding model using Scrubber 2.0 curve fitting software.

[2] = target: T2, hPRLR.mFc (soluble dimeric human PRLR); assay: SPR Biacore, 25 C, mAb capture
Description: as §1

[3] = target: T3, hPRLR.mmh (soluble monomeric human PRLR); assay: SPR Biacore, 25 C, mAb capture
Description: as §1

[4] = target: T4, human prolactin receptor (PRLR); assay: cell-based or functional assay
[5] = target: T4, human prolactin receptor (PRLR); assay: cell-based or functional assay; remark: listed apart in the source

Binder | Kd [1] [nM] | T½ [1] [min] | koff [1] [s⁻¹] | kon [1] [M⁻¹ s⁻¹] | Kd [2] [nM] | T½ [2] [min] | koff [2] [s⁻¹] | kon [2] [M⁻¹ s⁻¹] | Kd [3] [nM] | T½ [3] [min] | koff [3] [s⁻¹] | kon [3] [M⁻¹ s⁻¹] | further results
H1H6762P-DM1 (antibody, human IgG1, V domains shown, DM1 conjugated through SMCC linker; attachment residues not stated) VH: QVQLVESGGGVVQPGRSLRLSCAASGFTFSHYGMVWVRQPPGKGLEWVALISFDGTTKYYADSVKGRFTISRDNSKNTLYLQMNSLRAEDTAVYFCVGAIAAAAFDLWGRGTLVTVSS VL: EIVMTQSPATLSVSPGERATLSCRASQSVSSDLAWYQQKPGQAPRLLIYSASARATGIPARFTGSGSGTDFTLTISSLQSEDFAVYYCQQYNNWPMYTFGQGTKLEIK |  |  |  |  |  |  |  |  |  |  |  |  | % Kill, MCF7/PRLR cells [4]: 83%; % Kill, MCF7 cells [4]: 64%; % Kill, T47D cells [4]: 80%; IC50, cell viability, MCF7/PRLR cells [4]: 0.46 nM; IC50, cell viability, MCF7 cells [4]: 110 nM; IC50, cell viability, T47D cells [4]: 12.6 nM; % Kill, PC3/PRLR cells [5]: 66%; IC50, cell viability, PC3/PRLR cells [5]: 0.98 nM
H1H6801P (antibody, human IgG1, V domains shown, Human IgG1 Fc (H1H)) VH: QVQLQQSGPGLVKPSQTLSLTCVISGDSVSSNTAWNWVRQSPSRGLEWLGRTYYRSKWYNDYAVSVKSRITINPDTSKNQFSLLMNSVTPEDTAVYYCARVVRGLNYFDYWGQGTLVTVSS VL: DIVMTQSPDSLAVSLGERATINCKSSQSVLYNSNNKNYLAWYQQKPGQPPKLLIYWSSSRESGVPDRFSGSGSGTDFTLTISGLQAEDVAIYYCQQYSTIPYTFGQGTKLEIK | 1.88 | 9 | 0.00123 | 657000 | 0.161 | 106 | 0.000109 | 675000 | 0.894 | 15 | 0.000756 | 846000 | 
H1H6960N-DM1 (antibody, human IgG1, V domains shown, DM1 conjugated through SMCC linker; attachment residues not stated) VH: EVQLVESGGGLVKPGGSLRLSCAASGITFSSYSMNWVRQAPGKGLEWVSSISTRSSLIHYADSVKGRFTISRDNAKNSLYLQMNSLRDEDTAVYYCARWDAAAAFDYWGQGTLVIVSS VL: DIQLTQSPSFLSASVGDRVTITCWASQGISSYLAWYQQKPGKAPKLLIYVASTLQSGVPSRFSGSGSGTEFTLTISSLQPEDFATYFCQQLNSYPLTFGGGTKVEIK |  |  |  |  |  |  |  |  |  |  |  |  | % Kill, MCF7/PRLR cells [4]: 78%; % Kill, MCF7 cells [4]: 77%; % Kill, T47D cells [4]: 71%; IC50, cell viability, MCF7/PRLR cells [4]: 0.29 nM; IC50, cell viability, MCF7 cells [4]: 100 nM; IC50, cell viability, T47D cells [4]: 5.1 nM; % Kill, 293/PRLR cells [5]: 95%; % Kill, PC3/PRLR cells [5]: 82%; IC50, cell viability, 293/PRLR cells [5]: 0.38 nM; IC50, cell viability, PC3/PRLR cells [5]: 1.13 nM
H1H6804P (antibody, human IgG1, V domains shown, Human IgG1 Fc (H1H)) VH: QVTLKESGPVLVKPTQTLSLTCTVSGFSLSDAGMGVSWIRQPPGKALEWLAHIFSNDGKSYSTSLKSRLTISKDTSKRQVVLTMTNMDPVDTATYYCARIRTGTYSLYLDYWGQGTLVTVSS VL: DIQMTQSPSSLSASVGDRVTITCRASQSINSYLNWYQQKPGKAPKLLLYFASSLQSGVPSRFSGSGSGTDFTLTISSLQPEDFASYYCQESYSTPWTFGQGTKVEIK | 1.99 | 18 | 0.000657 | 331000 | 0.193 | 133 | 8.69e-05 | 451000 | 1.4 | 18 | 0.000634 | 453000 | 
H1H6803P (antibody, human IgG1, V domains shown, Human IgG1 Fc (H1H)) VH: EVQLVESGGGVVRPGGSLRLSCAASGFKFDDYGMTWVRHVPGKGLEWVSGINWNGGRTGYTDSVKGRFTISRDNAKNSLYLQMNSLRAEDTALYHCAGARRDAFDIWGQGTMVTVSS VL: DIQMTQSPSSLSASIGDRVTITCRASQNIIKYLNWYQQNAGKAPKLLIYTASSLQSGVPSRFSGSGSGTDFTLTISSLQPEDFATYYCQQSSSSPYTFGQGTKLEIK | 3.37 | 55 | 0.000209 | 62100 | 0.607 | 184 | 6.29e-05 | 104000 | 1.67 | 84 | 0.000137 | 82400 | 
H1H6807P (antibody, V domains shown, Human IgG1 Fc (H1H)) VH: QVQLVESGGGVVQPGRSLRLSCAASGFTFSDYNMHWVRQAPGKGLEWVAVIWYDGSNKHYADSVKGRFTISRDNSKNTLYLQMNSLRAEDTAVYYCARDGFTIFGMVLDYWGQGTLVTVSS VL: not shown | 0.346 | 76 | 0.000151 | 437000 | 0.0803 | 212 | 5.46e-05 | 680000 | 0.189 | 80 | 0.000144 | 761000 | 

Now from value to binder, other results behind:

Kd [1] [nM] | T½ [1] [min] | koff [1] [s⁻¹] | kon [1] [M⁻¹ s⁻¹] | Kd [2] [nM] | T½ [2] [min] | koff [2] [s⁻¹] | kon [2] [M⁻¹ s⁻¹] | Kd [3] [nM] | T½ [3] [min] | koff [3] [s⁻¹] | kon [3] [M⁻¹ s⁻¹] | Binder | further results
1.44 | 41.3 | 0.00028 | 195000 | 0.0867 | 316 | 3.66e-05 | 422000 | 1.17 | 42.5 | 0.000272 | 233000 | H1H6958N2 (antibody, human IgG1, V domains shown, Tested with human IgG1 Fc (H1H); also called H2M6958N2) VH: QVQLVESGGGVVQPGRSLRLSCGASGFTFRNYGMQWVRQGPGKGLEWVTLISFDGNDKYYADSVKGRFTISRDNSKNTLFLQMNSLRTEDTAVYYCARGGDFDYWGQGTLVTVSS VL: DIQMTQSPSSLSASVGDRVTITCRASQDIRKDLGWYQQKPGKAPKRLIYAASSLHSGVPSRFSGSGSGTEFTLTISSLQPEDFATYYCLQHNSYPMYTFGQGTKLEIK | 
6.2 | 19.8 | 0.000583 | 94000 | 0.141 | 324 | 3.56e-05 | 252000 | 6.74 | 15.8 | 0.000729 | 108000 | H1H6960N (antibody, human IgG1, V domains shown, Tested with human IgG1 Fc (H1H); also called H2M6960N) VH: EVQLVESGGGLVKPGGSLRLSCAASGITFSSYSMNWVRQAPGKGLEWVSSISTRSSLIHYADSVKGRFTISRDNAKNSLYLQMNSLRDEDTAVYYCARWDAAAAFDYWGQGTLVIVSS VL: DIQLTQSPSFLSASVGDRVTITCWASQGISSYLAWYQQKPGKAPKLLIYVASTLQSGVPSRFSGSGSGTEFTLTISSLQPEDFATYFCQQLNSYPLTFGGGTKVEIK | 
0.438 | 36.3 | 0.000319 | 727000 | 0.067 | 242 | 4.77e-05 | 711000 | 0.268 | 54.5 | 0.000212 | 792000 | H1H6953N (antibody, human IgG1, V domains shown, Tested with human IgG1 Fc (H1H); also called H1M6953N) VH: EVQLLESGGGLVQPGGTLRLSCAASGFTFSAYAMSWVRQAPGKGLEWVSSINVRAGDTYYADSVKGRFTISRDNSKNTLFLLMNSLRAEDTAAYYCAKARYSSNWGFDFWGQGTLVTVSS VL: DIVMTQSPDSLTVSLGARTTINCQSSQTILHSSNNHNYLAWYQQKPGLPPKLLIYWSSTRESGVPDRFSGSGSGTDFTLTISSLQAEDVAIYYCQQYSNTPYTFGQGTKLEIN | 
129 | 0.7 | 0.0167 | 129000 | 1.45 | 22.3 | 0.000518 | 359000 | 202 | 0.3 | 0.036 | 179000 | H1H6959N2 (antibody, human IgG1, V domains shown, Tested with human IgG1 Fc (H1H); also called H2M6959N2) VH: EVQLVESGGGLVQPGRSLRLSCAASGFTFDDYAMHWVRQAPGKGLEWVSGISWHSGIIGYADSVKGRFTISRDNAKNSLYLQMNSLRTEDAALYYCAKIGSYFYFDSWGQGTLVTVSS VL: EIVLTQSPGTLSLSPGERATLSCRASQSVSSNYLAWYQQKPGQAPRLLIYGASSRATGIPDRFSGSGSGTDFTLTISRLEPEDFAVYYCQQFGSSGYTFGQGTNLEIK | 
